Experimental findings from PMC10163220 are described below.

In assay [1] the target is ZIKV NS4A N-terminal peptide construct (residues 4–58) with N-terminal His-tag and linker (Zika virus (strain MR-766)). Put plainly: AUC; sedimentation equilibrium; approx. 10, 20 and 40 µM in 50 mM Tris–HCl pH 7.3, 150 mM NaCl; 23,000, 28,000, 34,500 and 42,000 rpm; 280 nm; self-equilibrium models in SEDPHAT, monomer to dimer to trimer.
For assay [2] the target is unchanged. Put plainly: AUC; sedimentation velocity; 50 mM Tris–HCl (pH 7.4), approx. 3–300 µM, 50,000 rpm, 20 °C, absorbance at 230 or 280 nm; c(s), c(s,ff0) and hybrid local continuous global discrete (non-interacting) analysis; no detergent or lipids.

“ZIKV NS4A N-terminal peptide construct (residues 4–58) with N-terminal His-tag and linker” registered a percent of monomers in trimers at 50 µM in assay [1] of 50%. The stoichiometry N in assay [1] and in assay [2] was 3 in each case.

One may read the stoichiometry N as a count of units in the complex or per binding partner.
